Assay results taken from PMC7321340, “Sorbitol as a Polar Pharmacological Modifier to Enhance the Hydrophilicity of ^99mTc-Tricarbonyl-Based Radiopharmaceuticals” (Molecules, 2020).
Read-outs that look alike come from different tables or passages of the source.

What was measured:
physchem = assay type: physicochemical; settings: pH 7.4
Procedure: For logD analysis, the octanol/PBS partition coefficients of the ^99mTc-tricarbonyl labeled BBN conjugates were determined at pH 7.4 utilizing the “shake-flask method” [25, 26]. The logD value for the reference compound [^99mTc][Tc(CO)3(BBN-13)] was −0.54 ± 0.04 while for the glycated compound [^99mTc][Tc(CO)3(12)] it was −1.26 ± 0.16 (Table 2). As expected, these measurements confirmed the increased hydrophilicity of the glycated ^99mTc-labeled BBN conjugate due to the introduction of the sorbitol moiety.
The lipophilicities (LogD) of [^99mTc][Tc(CO)3(L)] (L = 12, 13) were determined by their partition coefficient between n-octanol and PBS (pH 7.4) utilizing the “shake-flask method” [25, 26]. PBS and n-octanol were shaken overnight to saturate each phase. After separation of the layers by gravity, equal volumes (500 µL) of each layer were taken and transferred into an Eppendorf tube and 5 µL (~45 kBq) of the radiolabeled peptide solution were added to the PBS/n-octanol mixture. […] Aliquots of 300 µL were removed from the octanol and PBS phases and the radioactivity was measured in the γ-counter (n = 3 in triplicates). The lipophilicity was calculated as the log value of the average ratio between the radioactivity in the organic fraction (octanol) and the PBS fraction from the samples.

[1] = system: GRPR expressing PC-3 cells; experiment: Cell binding and internalization studies; assay type: cell-based, human
Procedure: Receptor binding and cell internalization properties of the ^99mTc(CO)3-labeled BBN derivatives were investigated with GRPR expressing PC-3 cells (n = 2–3 in triplicate). Despite the slightly slower uptake kinetics of [^99mTc][Tc(CO)3(12)], both radiolabeled compounds [^99mTc][Tc(CO)3(L)] […] The membrane bound fraction was less than 5% AD/10^6 cells for both compounds. The receptor-specific cell uptake was verified by incubating the cells with the radiopeptides in the presence of 1000-fold excess of natural bombesin as blocking agent.
Cell culture reagents were purchased from Thermo Fisher Scientific (Vienna, Austria) or Sigma-Aldrich (Vienna, Austria). […]
Internalization studies were performed as previously published. […] Non-specific receptor binding was determined by incubating the cells with the radiotracers and 1000-fold excess of natural bombesin (250 pmol; 100 μL per well) as the receptor blocking agent. […] The receptor-bound radioactivity was obtained by incubating the cells twice for 5 min with an ice-cold acidic glycine solution (100 mM NaCl, 50 mM glycine, pH 2.8; 1 mL) on ice followed by removal of the supernatant. […] All fractions were measured in a γ-counter and calculated as percentage of the applied dose (n = 2–3 in triplicate).

[2] = biological target: T1, Gastrin-releasing peptide receptor (GRPR) on PC-3 cells (Homo sapiens, UniProt P30550); experiment: Receptor saturation assay; assay type: binding; settings: 4 °C, 2 h, nonlinear regression, mean ± SEM, n = 2–3 in triplicate
T1 construct: using GRPR expressing PC-3 cells; host or cells: PC-3 human prostate adenocarcinoma cells (intact, in 6-well plates, 4 °C)
T1 sequence (P30550 whole entry): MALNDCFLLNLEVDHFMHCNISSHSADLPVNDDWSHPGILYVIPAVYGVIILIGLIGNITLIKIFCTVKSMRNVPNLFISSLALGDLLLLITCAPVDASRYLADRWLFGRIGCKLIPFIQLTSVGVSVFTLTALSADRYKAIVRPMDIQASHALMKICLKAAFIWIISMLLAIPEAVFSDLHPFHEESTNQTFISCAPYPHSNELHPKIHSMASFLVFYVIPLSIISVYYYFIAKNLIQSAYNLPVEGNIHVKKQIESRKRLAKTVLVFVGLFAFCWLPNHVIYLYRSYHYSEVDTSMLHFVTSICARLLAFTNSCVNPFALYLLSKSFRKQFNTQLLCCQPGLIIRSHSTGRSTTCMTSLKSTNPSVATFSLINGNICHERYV
Procedure: The receptor affinity (Kd) and maximum receptor occupancy (Bmax) were determined by receptor saturation assays using increasing amounts of the radiolabeled peptides (Figure 3). […] Differences in specific molar activities (MBq/mol) could account for this observation and cannot be entirely excluded even though both ^99mTc-radiopeptides were prepared under identical conditions. Because this study aims at the investigation of differences in the pharmacokinetics of the radiopeptides (e.g., rate and route of excretion) rather than in tumor uptake, we continued with the evaluation of both compounds in vivo.
Cell culture reagents were purchased from Thermo Fisher Scientific (Vienna, Austria) or Sigma-Aldrich (Vienna, Austria). Human prostate adenocarcinoma cells (PC-3) were purchased from ATCC and cultivated in RPMI-1640 medium supplemented with 10% heat-inactivated fetal bovine serum (FBS), 2 mM L-glutamine, 100 units/mL penicillin and 100 μg/mL streptomycin under humidified atmosphere (37 °C, 5% CO2) until minimum 80% at confluence. […]
Receptor binding assays were performed as previously published. […] Non-specific receptor binding was determined using an excess of natural bombesin (2.5 μM/well for concentrations of the radiopeptide <10 nM, and 10 μM/well for higher concentrations). […] The obtained fractions were measured in a γ-counter.

[3] = Biodistribution in nude mice bearing PC-3 tumor xenografts; settings: female, athymic nude (Fox-1^nu), mouse, in vivo, iv, 10 pmol, total radioactivity
Procedure: Biodistribution studies were performed in nude mice bearing PC-3 tumor xenografts at 1 h post-injection (p.i.) of the radiotracers (n = 6; Table 3, Figure 4).
All animals were treated according to the European Union rules on animal care. Animal experiments were approved by the Austrian Ministry of Sciences (BMBWF-66.009/0122-V/3b/2019). Approximately 5 × 10^6 PC-3 cells in 100 µL serum-free medium were subcutaneously injected into flanks of 8-week-old, female, athymic mice (Fox-1^nu, Charles River Laboratories). Xenografts were allowed to grow for 16 days (approx. size: 250 mm^3) and mice were intravenously injected via the tail vein with 0.1 µM radiolabeled peptide (10 pmol, ~42 kBq, 100 µL physiological saline) alone (baseline experiments) or co-injected with 2000-fold excess BBN(1–14) (20 nmol; blocking experiments). One hour p.i. of the radiotracers, mice were sacrificed and organs, tumor and blood were removed. Radioactivity in organs and tissues was quantified using a γ-counter (2480 Wizard^2, PerkinElmer). Organs and tissues were wet-weighted and percentage of injected dose per gram was calculated (% ID/g). Statistical analysis (2-way ANOVA) was performed by GraphPad Prism.

For `CCCC[C@H](NC(=O)[C@H](CC(C)C)NC(=O)[C@H](Cc1c[nH]cn1)NC(=O)CNC(=O)[C@@H](NC(=O)[C@H](C)NC(=O)[C@H](Cc1c[nH]c2ccccc12)NC(=O)[C@H](CCC(N)=O)NC(=O)CCNC(=O)CCNC(=O)CCNC(=O)Cn1cc(CN[C@@H](CCCCNC(=O)CCCOC[C@H](O)[C@@H](O)[C@H](O)[C@H](O)CO)C(=O)O)nn1)C(C)C)C(N)=O` [[^99mTc][Tc(CO)3(12)], metal not drawn], the logD (physchem) was -1.26 ± 0.16, the “cellular binding and uptake in the presence of blocking agent” value ([1]; 1000-fold excess of natural bombesin) was under 0.5 % AD/10^6 cells and the membrane bound fraction ([1]; acidic glycine wash fraction, n = 2–3 in triplicate) was “less than 5 % AD/10^6 cells”. For the same molecule, the Kd ([2]; 1–100 nM radiopeptide) was 21.3 ± 4.6 nM, the Bmax ([2]; maximum receptor occupancy) was 0.91 ± 0.06 nM and the tissue uptake at 1 h ([3]; 1 h p.i., i.v. 10 pmol, PC-3 xenograft, GRPR-positive, mean ± SD, n = 5–6, read-out: Tumor uptake) was 2.72 ± 0.88 %ID/g. It also gave a tissue uptake at 1 h ([3]; 1 h p.i., i.v. 10 pmol, mean ± SD, n = 5–6, read-out: Blood uptake) of 1.22 ± 0.4 %ID/g, a tissue uptake at 1 h ([3]; 1 h p.i., i.v. 10 pmol, mean ± SD, n = 5–6, read-out: Bone uptake) of 0.44 ± 0.28 %ID/g and a tissue uptake at 1 h ([3]; 1 h p.i., i.v. 10 pmol, mean ± SD, n = 5–6, read-out: Brain uptake) of 0.09 ± 0.07 %ID/g. The tissue uptake at 1 h ([3]; 1 h p.i., i.v. 10 pmol, mean ± SD, n = 5–6, read-out: Heart uptake) was 0.5 ± 0.23 %ID/g, the tissue uptake at 1 h ([3]; 1 h p.i., i.v. 10 pmol, mean ± SD, n = 5–6, read-out: Kidney uptake) was 4.32 ± 0.97 %ID/g and the tissue uptake at 1 h ([3]; 1 h p.i., i.v. 10 pmol, mean ± SD, n = 5–6, read-out: Liver uptake) was 2.75 ± 0.74 %ID/g. It also gave a tissue uptake at 1 h ([3]; 1 h p.i., i.v. 10 pmol, mean ± SD, n = 5–6, read-out: Lung uptake) of 1.38 ± 0.83 %ID/g, a tissue uptake at 1 h ([3]; 1 h p.i., i.v. 10 pmol, mean ± SD, n = 5–6, read-out: Muscle uptake) of 0.35 ± 0.24 %ID/g and a tissue uptake at 1 h ([3]; 1 h p.i., i.v. 10 pmol, mean ± SD, n = 5–6, read-out: Spleen uptake) of 1.16 ± 0.17 %ID/g. It also gave a tissue uptake at 1 h ([3]; Adrenal uptake) of 5.34 ± 1.85 %ID/g, a tissue uptake at 1 h ([3]; Colon uptake) of 5.85 ± 1.29 %ID/g and a tissue uptake at 1 h ([3]; Intestine uptake) of 3.71 ± 1.48 %ID/g. For the same molecule, the tissue uptake at 1 h ([3]; Pancreas uptake) was 17.1 ± 3.25 %ID/g, the tissue uptake at 1 h ([3]; Stomach uptake) was 3.03 ± 0.88 %ID/g and the increase of hydrophilicity (logD) vs non-glycated reference was 0.7 log units.
